{"source": "patent US20260035728A1", "about": "(Chugai, published 2026)", "binders": {"B1": {"name": "humanized A69 antibody H chain, IgG4-type w1 (R409D, K370E) (other)", "heavy": "EVQLVQSGAEVVKPGSSVKVSCTASGYTFSDYYMHWVRQAPGEGLEWMGYINPSSGYTKYNRKFRDRVTITADKSTSTAYMELSSLRSEDTAVYYCARGGLGYYLDYWGEGTTVTVSSASTKGPSVFPLAPCSRSTSESTAALGCLVKDYFPEPVTVSWNSGALTSGVHTFPAVLQSSGLYSLSSVVTVPSSSLGTKTYTCNVDHKPSNTKVDKRVESKYGPPCPPCPAPEFLGGPSVFLFPPKPKDTLMISRTPEVTCVVVDVSQEDPEVQFNWYVDGVEVHNAKTKPREEQFNSTYRVVSVLTVLHQDWLNGKEYKCKVSNKGLPSSIEKTISKAKGQPREPQVYTLPPSQEEMTKNQVSLTCLVEGFYPSDIAVEWESNGQPENNYKTTPPVLDSDGSFFLYSDLTVDKSRWQEGNVFSCSVMHEALHNHYTQKSLSLSLGK"}, "B2": {"name": "humanized A69 antibody H chain, IgG4-type w2 (R409D, K439E) (other)", "heavy": "B1 heavy with E368K, K437E"}, "B3": {"name": "humanized A69 antibody H chain, IgG4-type w3 (K370E, K439E) (other)", "heavy": "B1 heavy with D407R, K437E"}, "B4": {"name": "humanized A69 antibody H chain, IgG4-type s1C (R409D, Y349C) (other)", "heavy": "B1 heavy with Y347C, E368K"}, "B5": {"name": "humanized A69 antibody H chain, IgG4-type w3C (K370E, K439E, Y349C) (other)", "heavy": "B1 heavy with Y347C, D407R, K437E"}, "B6": {"name": "humanized A69 antibody H chain, IgG4-type w3C2 (K370E, K439E, S354C) (other)", "heavy": "B1 heavy with S352C, D407R, K437E"}}, "test_in_all_cases": "co-expression of both H chains with the common L chain; cation exchange chromatography (IEX), ratio of peak areas of A-Homo, BiAb and B-Homo; IgG4-type", "key": {"[1]": {"molecular_target": "humanized B26 antibody H chain, IgG4-type w1 (D399K, E357K)"}, "[2]": {"molecular_target": "humanized B26 antibody H chain, IgG4-type w2 (D399K, E356K)"}, "[3]": {"molecular_target": "humanized B26 antibody H chain, IgG4-type w3 (E357K, E356K)"}, "[4]": {"molecular_target": "humanized B26 antibody H chain, IgG4-type s1C (D399K, S354C)"}, "[5]": {"molecular_target": "humanized B26 antibody H chain, IgG4-type w3C (E357K, E356K, S354C)"}, "[6]": {"molecular_target": "humanized B26 antibody H chain, IgG4-type w3C2 (E357K, E356K, Y349C)"}}, "note": "Residue numbers refer to the chain shown, from its start. Names and notes keep the numbering of the source.", "data": [{"binder": "B1", "values": [{"measurement": "BiAb formation efficiency (%)", "setting": "[1]", "value": "≥ 90", "unit": "%"}]}, {"binder": "B2", "values": [{"measurement": "BiAb formation efficiency (%)", "setting": "[2]", "value": "≥ 90", "unit": "%"}]}, {"binder": "B3", "values": [{"measurement": "BiAb formation efficiency (%)", "setting": "[3]", "value": "≥ 90", "unit": "%"}]}, {"binder": "B4", "values": [{"measurement": "BiAb formation efficiency (%)", "setting": "[4]", "value": "≥ 90", "unit": "%"}]}, {"binder": "B5", "values": [{"measurement": "BiAb formation efficiency (%)", "setting": "[5]", "value": "≥ 90", "unit": "%"}]}, {"binder": "B6", "values": [{"measurement": "BiAb formation efficiency (%)", "setting": "[6]", "value": "≥ 90", "unit": "%"}]}]}
